Measured values: US7012060B1, “TNF receptor and steroid hormone in a combined therapy” (priority 1995, dated 2006)
Marks after values point to notes of the source that are not given here.

B1: TBP-1: urinary as well as recombinant TBP-1 (derived from both CHO and E. Coli cells), literature (protein, UniProt P19438 30-211, looked up)
extracellular domain: LVPHLGDREKRDSVCPQGKYIHPQNNSICCTKCHKGTYLYNDCPGPGQDTDCRECESGSFTASENHLRHCLSCSKCRKEMGQVEISSCTVDRDTVCGCRKNQYRHYWSENLFQCFNCSLCLNGTVHLSCQEKQNTVCTCHAGFFLRENECVSCSNCKKSLECTKLCLPQIENVKGTEDSGTT
modifications: extracellular domain
notes: urinary as well as recombinant TBP-1 (derived from both CHO and E. Coli cells), literature
B2: r-hTBP-1: CHO recombinant human TBP-1, the extracellular soluble domain of TNF-R1 (TNF Binding Protein-1) (protein, UniProt P19438 30-211, looked up)
extracellular domain: LVPHLGDREKRDSVCPQGKYIHPQNNSICCTKCHKGTYLYNDCPGPGQDTDCRECESGSFTASENHLRHCLSCSKCRKEMGQVEISSCTVDRDTVCGCRKNQYRHYWSENLFQCFNCSLCLNGTVHLSCQEKQNTVCTCHAGFFLRENECVSCSNCKKSLECTKLCLPQIENVKGTEDSGTT
modifications: extracellular domain

What was measured:
septic shock = conditions: urinary and recombinant TBP-1 (CHO and E. Coli); cited from earlier work
[1] = test system: septic shock induced by LPS + D-Galactosamine, in mice; assay: LPS+D-Galactosamine-induced septic shock model; assay type: in vivo, SPF female BALB/c inbred mice
Procedure: The experiments were carried out in vivo on mice. The septic shock was induced by an i.p. administration of a mixture of LPS (0.1 μg/mouse) and D-Galactosamine (18 mg/mouse).
The treatment schedule for r-hTBP-1 based on repeated administrations (the total dose was divided into 4 administrations given at time 0 and […] and 24 hours after), was adopted. CHO r-hTBP-1 was tested, alone or in combination with DHEA, at dose levels of 62.5 and 125 μg/mouse (total dose).
DHEA was tested both in a single administration injected i.p. one hour before and contemporaneously to the septic shock-inducing agent at doses encompassed between 100 and 2.000 μg/mouse and in repeated treatment with the total dose (250 μg/mouse) divided into 4 injections given within 24 hours.
The above treatment schedules of DHEA (doses from 250 to 1,500 μl g/mouse) were followed also in combination with r-hTBP-1 which was tested at the total dose varying from 62.5 to 125 μg/mouse (divided into 4 administrations).
SPF female BALB/c inbred mice, 6–8 weeks (about 18–20 g b.w.), from Charles River were used throughout the whole study after an acclimatisation period of at least 7 days.
Unless otherwise specified, in all the experiments the mice were randomly divided into groups of 10 animals each.
Both substances were dissolved in saline. The mixture of LPS (0.1 μg/mouse) and D-Galactosamine (18 mg/mouse) was prepared by mixing equal volumes of these substances. The mixture was subsequently injected to animals by the i.p. route. This dose was selected under precious experiments as that inducing around 80% mortality calculated as the number of dead vs. total number of mice for each croup. The lethality was monitored after 24, 48, 72 and 96 hours and at day 7 post-treatment.
The drug was diluted in saline and injected by repeated administrations, i.e. i.v. immediately before the inoculum of LPS plus D-Galactosamine and s.c. 3, 6 and 24 hours later.
The effects of DHEA, alone or in combination with r-hTBP-1, were assayed after single i.p. administrations at different times in respect to LPS+D-Galactosamine injection; in particular, it was administered 1 hour before and contemporaneously to the septic shock-inducing agent.
A repeated treatment schedule was also investigated in which DHEA was administered at time 0 (septic shock induction) and 3, 6 and 24 hours later. DHEA was initially vehicled in a mixture of 2.5% alcohol and 10% rabbit serum in saline. To improve the solubility and standardise the preparation, the steroid was successively dispersed in a mixture of 2.5% alcohol and 10% phospholipid emulsion in saline.
The primary end point was the survival rate at 48 hours after induction of septic shock. The comparison of the effects of each treatment group vs. controls and among treatment groups was effected by Fisher's exact test, one-tailed. The same comparison was also performed at the other time points. The results in each treatment group were expressed as percent survival.
In all the experiments, percent survival values were calculated using the survival Tables for the follow up studies (Armitage P. Cap. XIV. Tavole di sopravvivenza in Statistica Medica, Feltrinelli, Milano). The χ^2-test was applied to each observation time by comparing the DHEA+r-hTBP-1 groups to the other groups.

Molecule | in vivo protective effects (septic shock) | % cumulative survival ([1]; Table 2, r-hTBP-1 125 μg/mouse, time 0 (i.v.) and 3, 6, 24 hours (s.c.), 24 hrs) [%] | % cumulative survival ([1]; Table 2, r-hTBP-1 125 μg/mouse, time 0 (i.v.) and 3, 6, 24 hours (s.c.), 48 hrs) [%] | % cumulative survival ([1]; Table 2, r-hTBP-1 125 μg/mouse, time 0 (i.v.) and 3, 6, 24 hours (s.c.), 72 hrs) [%] | % cumulative survival ([1]; Table 2, r-hTBP-1 125 μg/mouse, time 0 (i.v.) and 3, 6, 24 hours (s.c.), 96 hrs) [%] | % cumulative survival ([1]; Table 4, r-hTBP-1 62.5 μg/mouse, time 0 (i.v.) and 3, 6, 24 hours (s.c.), 24 hr) [%] | % cumulative survival ([1]; Table 4, r-hTBP-1 62.5 μg/mouse, time 0 (i.v.) and 3, 6, 24 hours (s.c.), 48 hr) [%] | % cumulative survival ([1]; Table 4, r-hTBP-1 62.5 μg/mouse, time 0 (i.v.) and 3, 6, 24 hours (s.c.), 72 hr) [%] | % cumulative survival ([1]; Table 4, r-hTBP-1 62.5 μg/mouse, time 0 (i.v.) and 3, 6, 24 hours (s.c.), 96 hr) [%] | % cumulative survival ([1]; Table 5 group C, r-hTBP-1 62.5 μg, time 0 i.v. and 3, 6, 24 hours s.c., 24 hrs, 1st exp.) | % cumulative survival ([1]; Table 5 group C, r-hTBP-1 62.5 μg, time 0 i.v. and 3, 6, 24 hours s.c., 24 hrs, 2nd exp.) | % cumulative survival ([1]; Table 5 group C, r-hTBP-1 62.5 μg, time 0 i.v. and 3, 6, 24 hours s.c., 48 hrs, 1st exp.) | % cumulative survival ([1]; Table 5 group C, r-hTBP-1 62.5 μg, time 0 i.v. and 3, 6, 24 hours s.c., 48 hrs, 2nd exp.) [%] | % cumulative survival ([1]; Table 5 group C, r-hTBP-1 62.5 μg, time 0 i.v. and 3, 6, 24 hours s.c., 72 hrs, 1st exp.) | % cumulative survival ([1]; Table 5 group C, r-hTBP-1 62.5 μg, time 0 i.v. and 3, 6, 24 hours s.c., 72 hrs, 2nd exp.) [%] | % cumulative survival ([1]; Table 5 group C, r-hTBP-1 62.5 μg, time 0 i.v. and 3, 6, 24 hours s.c., 96 hrs, 1st exp.) | % cumulative survival ([1]; Table 5 group C, r-hTBP-1 62.5 μg, time 0 i.v. and 3, 6, 24 hours s.c., 96 hrs, 2nd exp.) [%] | protection (survival) ([1]; r-hTBP-1 62.5 μg/mouse alone) [%] | survival ([1]; r-hTBP-1 125 μg/mouse alone (suboptimal dose)) | survival ([1]; text (conclusions), r-hTBP-1 125 μg/mouse total dose alone) [%]
B1 | protective effects |  |  |  |  |  |  |  |  |  |  |  |  |  |  |  |  |  |  | 
B2 |  | 50 | 50 | 50 | 50 | 20 | 10 | 0 | 0 | 90^a % | 70^a % | 80^a % | 40 | 70^a % | 30 | 70^a % | 30 | 20 | about 50% | 50
